*1 amine or outer side, *2 acyl side, *3 side chain or, on linkers, in order; H or OH if unused. Primed or numbered codes have the meaning given here. Where no end group is shown, it is not given here. Side-chain parts run from the residue outwards. [ ]: non-standard residue; d: D form. The star is where a group is joined. PEG4′ = 4 PEG units (K(PEGxpalm): Lys with x PEG units and palmitoyl at epsilon N, C-terminal (PEG)4); γGlu = O=C(O)[C@H](CCC(=O)[*:2])N[*:1]; Palmitoyl = CCCCCCCCCCCCCCCC(=O)*; PEG12′ = not defined here
biological target: human glucagon receptor (GCGR) (human, UniProt P47871 26-477); experiment: cell-based or functional assay
Sequence (P47871 26-477): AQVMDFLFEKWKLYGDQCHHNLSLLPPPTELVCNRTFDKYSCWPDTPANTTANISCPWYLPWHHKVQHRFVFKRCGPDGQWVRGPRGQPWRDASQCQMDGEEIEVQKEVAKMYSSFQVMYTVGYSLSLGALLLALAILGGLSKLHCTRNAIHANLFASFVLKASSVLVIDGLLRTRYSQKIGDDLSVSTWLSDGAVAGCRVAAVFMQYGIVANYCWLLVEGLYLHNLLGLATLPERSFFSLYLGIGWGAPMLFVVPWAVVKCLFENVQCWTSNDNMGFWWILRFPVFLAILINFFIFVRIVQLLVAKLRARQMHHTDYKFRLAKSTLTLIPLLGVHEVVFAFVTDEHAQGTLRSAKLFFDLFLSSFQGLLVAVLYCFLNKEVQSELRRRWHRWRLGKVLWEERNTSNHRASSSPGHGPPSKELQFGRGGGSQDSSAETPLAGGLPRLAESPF

cAMP activity, Glcg EC50 nM	Binder
0.002 nM	HSQGTFTSDYSKYLDSXRAQDFVQWLV (not fully specified; K(PEG4-palm) at 17; C-terminal PEG12) [g440]
0.03 nM	HSQGTFTSDYSKYLDSRRAQDFVQWLV (C-terminal 11-aminoundecanoic acid (Aud)) [g358]
0.003 nM	HXQGTFTSDYSKYLDSXRAQDFVQWLV (alpha-amino-iso-butyric acid (Aib) at 2; K(PEG4-palm) at 17; C-terminal PEG4) [g501]
0.03 nM	HGQGTFTSDYSKYLESK([PEG4′-Palmitoyl])RAQDFVQWLV[PEG4′] [g499]
> 2 nM	HGQGTFTSDYSKYLDSK([γGlu-Palmitoyl])RAEDFVQWLV[PEG4′] [g693]
0.02 nM	HGQGTFTSDYSKYK([γGlu-Palmitoyl])DSRRAQDFVQWLV[PEG4′] [g514]
2 nM	HGQGTFTSDYSKYLESK([γGlu-Palmitoyl])RAQDFVQWLV[PEG4′] [g498]
0.02 nM	HSQGTFTSDYSKYLDSK([γGlu-Palmitoyl])RAQRDFVAWLV[PEG12′] (not fully specified; printed as HSQGTFTSDYSKYLDSBRAQRDFVAWLVZ12) [g828]
0.7 nM	HSQGTFTSDYSKYLDSRK([γGlu-Palmitoyl])AQDFVQWLV[PEG4′] [g422]
0.002 nM	HSQGTFTSDYSKYKDSRRAQDFVQWLV[PEG4′] (not fully specified (residue 14); printed as HSQGTFTSDYSKYB1DSRRAQDFVQWLVZ4) [g427]
0.004 nM	HGQGTFTSDYSKYLDSXRAQDFVQWLV (not fully specified; K(PEG4-palm) at 17; C-terminal PEG4) [g431]
0.4 nM	HSEGTFTSDYSKYK([γGlu-Palmitoyl])DSRRAQDFVQWLV[PEG4′] [g515]
0.003 nM	HSQGTFTSDYSKYLDSKRAQDFVQWLEA (K(gE-palm) at 17 (printed as B); C-terminal PEG2) [g533]
4 nM	HGQGTFTSDYSEYLDSK([γGlu-Palmitoyl])RAQDFVQWLV[PEG4′] [g695]
0.002 nM	HSQGTFTSDYSKYLDSXRAQDFVQWLV (not fully specified; K(PEG4-palm) at 17; C-terminal PEG3) [g436]
0.2 nM	HGQGTFTSDYSKYLDSK([γGlu-Palmitoyl])RAQDFVEWLV[PEG4′] [g694]
0.002 nM	HSQGTFTSDYSKYLDSXRAQDFVQWLE (K(PEG3-palm) at 17; C-terminal PEG4) [g503]
0.004 nM	HSQGTFTSDYSKYLDSRRAXDFVQWLV (K(PEG4-palm) at 20; C-terminal PEG4) [g457]
0.04 nM	HSQGTFTSDYSRYLDSK([γGlu-Palmitoyl])RARDFVAWLV[PEG4′] [g827]

cAMP activity, Glcg EC50 nM	Binder
0.03 nM	HSEGTFTSDYSKYLDSKRAQDFVQWLV[PEG4′] (not fully specified (residue 17); printed as HSEGTFTSDYSKYLDSB1RAQDFVQWLVZ4) [g433]
0.003 nM	HSQGTFTSDYSXYLDSRRAQDFVQWLV (not fully specified; K(PEG4-palm) at 12; C-terminal PEG4) [g417]
0.03 nM	HSQGTFTSDYSKYLDK([PEG4′-Palmitoyl])SRARDFVAWLV[PEG4′] [g972]
0.002 nM	HSQGTFTSDYSKYLDSXRAQDFVQWLV (not fully specified; K(PEG2-palm) at 17; C-terminal PEG4) [g435]
0.009 nM	HSQGTFTSDYSKYLDK([γGlu-Palmitoyl])RRAQDFVQWLV[PEG4′] [g424]
0.08 nM	HSQGTFTSDYSKYLDSRK([γGlu-Palmitoyl])AQDFVQWLE[PEG4′] [g454]
0.02 nM	HSQGTFTSDYSKYLDSXRAQDFVQWLV (K(PEG3-palm) at 17; C-terminal PEG4) [g434]
0.002 nM	HSQGTFTSDYSKYLDKRRAQDFVQWLV[PEG4′] (not fully specified (residue 16); printed as HSQGTFTSDYSKYLDB1RRAQDFVQWLVZ4) [g425]
0.002 nM	HSQGTFTSDYSKYLDK([PEG4′-Palmitoyl])RRAQDFVQWLE[PEG4′] [g495]
0.001 nM	HSQGTFTSDYSKYLDSXRAQDFVQWLE (K(PEG2-palm) at 17; C-terminal PEG4) [g502]
0.002 nM	HSQGTFTSDYSKYLDSXRAQDFVQWLV (not fully specified; K(PEG4-palm) at 17; C-terminal PEG2) [g437]
> 1800 nM	HGQGTFTSDYSKYLDSEK([γGlu-Palmitoyl])ARDFVAWLV[PEG4′] [g735]
0.08 nM	HGQGTFTSDYSKYLDSXRAQDFVQWLE (K(gE-palm) at 17; C-terminal PEG4) [g516]
0.005 nM	HSQGTFTSDYSKYLDSXRAQDFVQWLE (not fully specified; K(PEG4-palm) at 17; C-terminal PEG4) [g429]
0.002 nM	HSQGTFTSDYSKYLDSXRAQDFVQWLV (not fully specified; K(PEG4-palm) at 17; C-terminal PEG8) [g439]
0.002 nM	HSQGTFTSDYSKYLDSXRAQDFVQWLV (not fully specified; K(PEG4-palm) at 17; C-terminal PEG6) [g438]
0.08 nM	HSQGTFTSDYSKYLDSRRAQDFVQWLV (C-terminal 6-aminohexanoic acid (Ahx)) [g357]
0.004 nM	HSQGTFTSDYSKYLDSRKAQDFVQWLV[PEG4′] (not fully specified (residue 18); printed as HSQGTFTSDYSKYLDSRB1AQDFVQWLVZ4) [g423]

biological target: human GLP-1 receptor (GLP-1R) (human, UniProt P43220 24-463); experiment: cell-based or functional assay

cAMP activity, GLP1 EC50 nM	Binder
0.008 nM	HSQGTFTSDYSKYLDSXRAQDFVQWLV (not fully specified; K(PEG4-palm) at 17; C-terminal PEG12) [g440]
3.2 nM	HSQGTFTSDYSKYLDSRRAQDFVQWLV (C-terminal 11-aminoundecanoic acid (Aud)) [g358]
0.03 nM	HXQGTFTSDYSKYLDSXRAQDFVQWLV (alpha-amino-iso-butyric acid (Aib) at 2; K(PEG4-palm) at 17; C-terminal PEG4) [g501]
0.02 nM	HGQGTFTSDYSKYLESK([PEG4′-Palmitoyl])RAQDFVQWLV[PEG4′] [g499]
0.1 nM	HGQGTFTSDYSKYLDSK([γGlu-Palmitoyl])RAEDFVQWLV[PEG4′] [g693]
0.1 nM	HGQGTFTSDYSKYK([γGlu-Palmitoyl])DSRRAQDFVQWLV[PEG4′] [g514]
0.6 nM	HGQGTFTSDYSKYLESK([γGlu-Palmitoyl])RAQDFVQWLV[PEG4′] [g498]
0.04 nM	HSQGTFTSDYSKYLDSK([γGlu-Palmitoyl])RAQRDFVAWLV[PEG12′] (not fully specified; printed as HSQGTFTSDYSKYLDSBRAQRDFVAWLVZ12) [g828]
0.2 nM	HSQGTFTSDYSKYLDSRK([γGlu-Palmitoyl])AQDFVQWLV[PEG4′] [g422]
0.004 nM	HSQGTFTSDYSKYKDSRRAQDFVQWLV[PEG4′] (not fully specified (residue 14); printed as HSQGTFTSDYSKYB1DSRRAQDFVQWLVZ4) [g427]
0.006 nM	HGQGTFTSDYSKYLDSXRAQDFVQWLV (not fully specified; K(PEG4-palm) at 17; C-terminal PEG4) [g431]
0.1 nM	HSEGTFTSDYSKYK([γGlu-Palmitoyl])DSRRAQDFVQWLV[PEG4′] [g515]
0.09 nM	HSQGTFTSDYSKYLDSKRAQDFVQWLEA (K(gE-palm) at 17 (printed as B); C-terminal PEG2) [g533]
0.2 nM	HGQGTFTSDYSEYLDSK([γGlu-Palmitoyl])RAQDFVQWLV[PEG4′] [g695]
0.01 nM	HSQGTFTSDYSKYLDSXRAQDFVQWLV (not fully specified; K(PEG4-palm) at 17; C-terminal PEG3) [g436]
0.07 nM	HGQGTFTSDYSKYLDSK([γGlu-Palmitoyl])RAQDFVEWLV[PEG4′] [g694]
0.02 nM	HSQGTFTSDYSKYLDSXRAQDFVQWLE (K(PEG3-palm) at 17; C-terminal PEG4) [g503]
0.03 nM	HSQGTFTSDYSKYLDSRRAXDFVQWLV (K(PEG4-palm) at 20; C-terminal PEG4) [g457]
0.2 nM	HSQGTFTSDYSRYLDSK([γGlu-Palmitoyl])RARDFVAWLV[PEG4′] [g827]

cAMP activity, GLP1 EC50 nM	Binder
0.004 nM	HSEGTFTSDYSKYLDSKRAQDFVQWLV[PEG4′] (not fully specified (residue 17); printed as HSEGTFTSDYSKYLDSB1RAQDFVQWLVZ4) [g433]
0.02 nM	HSQGTFTSDYSXYLDSRRAQDFVQWLV (not fully specified; K(PEG4-palm) at 12; C-terminal PEG4) [g417]
0.03 nM	HSQGTFTSDYSKYLDK([PEG4′-Palmitoyl])SRARDFVAWLV[PEG4′] [g972]
0.01 nM	HSQGTFTSDYSKYLDSXRAQDFVQWLV (not fully specified; K(PEG2-palm) at 17; C-terminal PEG4) [g435]
0.4 nM	HSQGTFTSDYSKYLDK([γGlu-Palmitoyl])RRAQDFVQWLV[PEG4′] [g424]
0.5 nM	HSQGTFTSDYSKYLDSRK([γGlu-Palmitoyl])AQDFVQWLE[PEG4′] [g454]
0.005 nM	HSQGTFTSDYSKYLDSXRAQDFVQWLV (K(PEG3-palm) at 17; C-terminal PEG4) [g434]
0.008 nM	HSQGTFTSDYSKYLDKRRAQDFVQWLV[PEG4′] (not fully specified (residue 16); printed as HSQGTFTSDYSKYLDB1RRAQDFVQWLVZ4) [g425]
0.09 nM	HSQGTFTSDYSKYLDK([PEG4′-Palmitoyl])RRAQDFVQWLE[PEG4′] [g495]
0.03 nM	HSQGTFTSDYSKYLDSXRAQDFVQWLE (K(PEG2-palm) at 17; C-terminal PEG4) [g502]
0.006 nM	HSQGTFTSDYSKYLDSXRAQDFVQWLV (not fully specified; K(PEG4-palm) at 17; C-terminal PEG2) [g437]
0.8 nM	HGQGTFTSDYSKYLDSEK([γGlu-Palmitoyl])ARDFVAWLV[PEG4′] [g735]
0.6 nM	HGQGTFTSDYSKYLDSXRAQDFVQWLE (K(gE-palm) at 17; C-terminal PEG4) [g516]
0.004 nM	HSQGTFTSDYSKYLDSXRAQDFVQWLE (not fully specified; K(PEG4-palm) at 17; C-terminal PEG4) [g429]
0.008 nM	HSQGTFTSDYSKYLDSXRAQDFVQWLV (not fully specified; K(PEG4-palm) at 17; C-terminal PEG8) [g439]
0.005 nM	HSQGTFTSDYSKYLDSXRAQDFVQWLV (not fully specified; K(PEG4-palm) at 17; C-terminal PEG6) [g438]
1.6 nM	HSQGTFTSDYSKYLDSRRAQDFVQWLV (C-terminal 6-aminohexanoic acid (Ahx)) [g357]
0.01 nM	HSQGTFTSDYSKYLDSRKAQDFVQWLV[PEG4′] (not fully specified (residue 18); printed as HSQGTFTSDYSKYLDSRB1AQDFVQWLVZ4) [g423]
